In paper PMC4128088 (Structure (London, England : 1993), 2014):

Biological target: the molecule itself
Assay: SAXS

B1: Human Presequence Protease E107Q (hPreP E107Q) (enzyme, UniProt Q5JRX3 34-1037, looked up)
chain: CERALQYKLGDKIHGFTVNQVTSVPELFLTAVKLTHDDTGARYLHLAREDTNNLFSVQFRTTPMDSTGVPHILQHTVLCGSQKYPCRDPFFKMLNRSLSTFMNAFTASDYTLYPFSTQNPKDFQNLLSVYLDATFFPCLRELDFWQEGWRLEHENPSDPQTPLVFKGVVFNEMKGAFTDNERIFSQHLQNRLLPDHTYSVVSGGDPLCIPELTWEQLKQFHATHYHPSNARFFTYGNFPLEQHLKQIHEEALSKFQKIEPSTVVPAQTPWDKPREFQITCGPDSFATDPSKQTTISVSFLLPDITDTFEAFTLSLLSSLLTSGPNSPFYKALIESGLGTDFSPDVGYNGYTREAYFSVGLQGIAEKDIETVRSLIDRTIDEVVEKGFEDDRIEALLHKIEIQMKHQSTSFGLMLTSYIASCWNHDGDPVELLKLGNQLAKFRQCLQENPKFLQEKVKQYFKNNQHKLTLSMRPDDKYHEKQAQVEATKLKQKVEALSPGDRQQIYEKGLELRSQQSKPQDASCLPALKVSDIEPTIPVTELDVVLTAGDIPVQYCAQPTNGMVYFRAFSSLNTLPEELRPYVPLFCSVLTKLGCGLLDYREQAQQIELKTGGMSASPHVLPDDSHMDTYEQGVLFSSLCLDRNLPDMMQLWSEIFNNPCFEEEEHFKVLVKMTAQELANGIPDSGHLYASIRAGRTLTPAGDLQETFSGMDQVRLMKRIAEMTDIKPILRKLPRIKKHLLNGDNMRCSVNATPQQMPQTEKAVEDFLRSIGRSKKERRPVRPHTVEKPVPSSSGGDAHVPHGSQVIRKLVMEPTFKPWQMKTHFLMPFPVNYVGECIRTVPYTDPDHASLKILARLMTAKFLHTEIREKGGAYGGGAKLSHNGIFTLYSYRDPNTIETLQSFGKAVDWAKSGKFTQQDIDEAKLSVFSTVDAPVAPSDKGMDHFLYGLSDEMKQAHREQLFAVSHDKLLAVSDRYLGTGKSTHGLAILGPENPKIAKDPSWIIQ
stoichiometry N: 2
